Source: patent US20030199671A1, “Binding molecules for Fc-region polypeptides” (priority 2001, published 2003)
Like-named read-outs stand apart in the source and are kept apart here. Non-standard residues stand in square brackets, D forms with d. Nle = CCCC[C@H](N)C(=O)O

Tests used:
Format in all cases: binding
human IgG1 = molecular target: T1, human IgG1 (Homo sapiens, UniProt P01857)
T1 construct: all human subtypes derived from myeloma patients; purchased Calbiochem 400120; host or cells: myeloma patients
Description: (§1) In addition, the following targets, all unfractionated IgGs, were also evaluated with selected immobilized peptides for species specificity characterization in a similar format: human IgG, goat IgG, bovine IgG, and mouse IgG (Sigma, product nos. I4506, I5256, I5506, and I15381, respectively). In addition, 10 μl aliquots of hydrolyzed NHS-activated Sepharose 4 Fast Flow (Amersham Pharmacia Biotech, product no. 17-0906-01) and immobilized recombinant Protein A (RepliGen Corp., product no. IPA-400) were also assayed as negative and positive controls. IgG targets were diluted into 10 mM phosphate buffer containing 150 mM NaCl and 0.01% Tween 20, pH 7.2 (PBST) or 50 mM Tris buffer containing, 150 mM NaCl and 0.01% Tween-20, pH 7.5 (TBST). Batch (static) binding and elution studies were conducted in a 96-well assay filterplate (Millipore MultiScreen-HV, with 0.45 μm Durapore membrane, product no. MAHVN4510). The target was allowed to incubate with the resin for 1-1.5 hours with shaking at room temperature. Unbound target was collected by centrifugation of samples from the assay plate directly into a low-UV absorbing 96-well collection plate (Costar, product no. 3635 or Greiner, product no. 655801). The unbound target was then quantitated by reading the absorbance at 280 nm (normalized to 1 cm pathlength, 1.4 mg/ml A280 extinction coefficient) of the collection plate on a microplate spectrophotometer (Molecular Devices Corp., SPECTRAmax PLUS) against a buffer blank.
(§2) The percentage bound target was determined by subtracting the mass determined as unbound from the corresponding condition's control values (control non-filtered added directly to the collection plate and/or the negative control). The assay plate was washed (3×) with 200 μl of binding buffer by vacuum filtration followed by addition of 100 μl of various elution conditions (e.g.: 0.1 M sodium bicarbonate buffer, pH 8.5 and/or 0.1 M sodium citrate buffer, pH 4.0). After a 30-60 minute incubation with shaking at room temperature, the eluted target was collected by centrifugation of the assay plate into another collection plate and quantitated in a similar manner. Percent elution of total load was then determined to characterize elution recovery efficiency under various conditions. The assay plate was then washed (3×) with 200 μl of binding buffer by vacuum filtration followed by addition of a resin cleaning condition (e.g., 0.1M CAPS buffer (3-[Cyclohexylamino]-1-propane-sulfonic acid), pH 11.5, to regenerate the resin for re-use. Percentage mass balance determination was calculated to be 90-100% on average.

human IgG2 = molecular target: T2, human IgG2 (Homo sapiens, UniProt P01859)
T2 construct: all human subtypes derived from myeloma patients; purchased Calbiochem 400122; host or cells: myeloma patients
Description: as §1, §2

human IgG = system: human IgG
Description: as §1, §2

IgG3 = IgG3 (Homo sapiens, UniProt P01860); set-up: all human subtypes derived from myeloma patients; purchased Calbiochem 400124; host or cells: myeloma patients
Description: as §1, §2

IgG4 = IgG4 (Homo sapiens, UniProt P01861); set-up: all human subtypes derived from myeloma patients; purchased Calbiochem 400126; host or cells: myeloma patients
Description: as §1, §2

[1] = peptide immobilized on NHS activated sepharose 4 fast flow, target ligand density 2.0 μmole/ml, batch filterplate, hIgG1
[2] = peptide immobilized on NHS activated sepharose 4 fast flow, target ligand density 2.0 μmole/ml, batch filterplate, hIgG2
[3] = peptide immobilized on NHS activated sepharose 4 fast flow, target ligand density 2.0 μmole/ml, batch filterplate, hIgG
[4] = peptide immobilized on NHS activated sepharose 4 fast flow, target ligand density 2.0 μmole/ml, batch filterplate, hIgG3
[5] = peptide immobilized on NHS activated sepharose 4 fast flow, target ligand density 2.0 μmole/ml, batch filterplate, hIgG4
[6] = Table 20, average ligand density 1.9 μmole/ml

Sequence of IgG4 (P01861 1-327 isoform P01861-1): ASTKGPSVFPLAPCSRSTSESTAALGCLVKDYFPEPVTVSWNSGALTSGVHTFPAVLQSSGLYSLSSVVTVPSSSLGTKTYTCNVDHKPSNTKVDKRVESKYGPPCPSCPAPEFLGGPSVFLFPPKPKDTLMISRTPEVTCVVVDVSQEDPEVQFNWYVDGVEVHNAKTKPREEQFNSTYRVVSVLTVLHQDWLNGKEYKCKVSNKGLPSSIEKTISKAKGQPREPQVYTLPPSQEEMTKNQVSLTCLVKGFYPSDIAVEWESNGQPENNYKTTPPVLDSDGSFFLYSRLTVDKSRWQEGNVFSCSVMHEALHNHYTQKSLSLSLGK
T1 sequence (P01857 1-330 isoform P01857-1): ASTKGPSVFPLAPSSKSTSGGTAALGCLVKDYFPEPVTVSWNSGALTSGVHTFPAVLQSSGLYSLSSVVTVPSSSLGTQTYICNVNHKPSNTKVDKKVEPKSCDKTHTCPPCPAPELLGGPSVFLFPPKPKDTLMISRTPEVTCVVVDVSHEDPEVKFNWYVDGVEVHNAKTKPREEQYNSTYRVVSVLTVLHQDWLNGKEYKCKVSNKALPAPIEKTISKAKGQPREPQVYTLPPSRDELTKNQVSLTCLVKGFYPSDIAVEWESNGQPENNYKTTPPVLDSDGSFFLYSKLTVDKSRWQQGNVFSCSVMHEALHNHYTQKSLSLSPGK
Sequence of IgG3 (P01860 1-377 isoform P01860-1): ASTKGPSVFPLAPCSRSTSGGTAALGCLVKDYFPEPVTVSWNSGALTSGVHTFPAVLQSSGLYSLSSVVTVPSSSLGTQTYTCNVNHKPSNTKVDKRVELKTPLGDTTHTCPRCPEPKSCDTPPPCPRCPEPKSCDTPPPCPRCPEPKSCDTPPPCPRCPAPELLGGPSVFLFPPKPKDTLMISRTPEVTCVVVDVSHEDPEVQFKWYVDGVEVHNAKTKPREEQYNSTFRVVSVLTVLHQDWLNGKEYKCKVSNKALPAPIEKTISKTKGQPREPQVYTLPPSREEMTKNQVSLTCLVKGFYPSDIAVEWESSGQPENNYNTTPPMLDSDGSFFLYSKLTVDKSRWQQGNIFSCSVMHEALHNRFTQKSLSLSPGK
T2 sequence (P01859 1-326 isoform P01859-1): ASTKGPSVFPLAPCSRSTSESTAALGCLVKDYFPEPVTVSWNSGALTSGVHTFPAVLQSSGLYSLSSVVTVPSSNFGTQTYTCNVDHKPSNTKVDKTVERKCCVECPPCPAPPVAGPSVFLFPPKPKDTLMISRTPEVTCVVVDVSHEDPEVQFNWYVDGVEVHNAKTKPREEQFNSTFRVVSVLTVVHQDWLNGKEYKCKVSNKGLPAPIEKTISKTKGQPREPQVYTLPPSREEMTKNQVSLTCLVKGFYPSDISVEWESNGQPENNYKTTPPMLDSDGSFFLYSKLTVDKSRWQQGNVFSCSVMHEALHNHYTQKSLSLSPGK

| Batch Binding (% Capture of Total Load) hIgG1 (human IgG1; [1]) [%] | Batch Binding (% Capture of Total Load) hIgG2 (human IgG2; [2]) [%] | Batch Binding (% Capture of Total Load) hIgG (human IgG; [3]) [%] | Batch Binding (% Capture of Total Load) hIgG3 (IgG3; [4]) [%] | Batch Binding (% Capture of Total Load) hIgG4 (IgG4; [5]) [%] | Batch Binding (% Capture of Total Load) hIgG1 (human IgG1; [6]) [%] | Batch Binding (% Capture of Total Load) hIgG2 (human IgG2; [6]) [%] | Batch Binding (% Capture of Total Load) hIgG (human IgG; [6]) [%] | Batch Binding (% Capture of Total Load) hIgG3 (IgG3; [6]) [%] | Batch Binding (% Capture of Total Load) hIgG4 (IgG4; [6]) [%] | Substance | also measured |
| --- | --- | --- | --- | --- | --- | --- | --- | --- | --- | --- | --- |
| 66 | 55 | 57 | 0 | 39 | – | – | – | – | – | Ac-ACSRDWSGALVWCAGHEPGPEGGGK-NH2 (not fully specified (bridges); printed as Ac-ACSRDWSGALVWCAGHEPGPEGGGK-NH2; cysteine pairing not given here) [DX1142] | – |
| – | – | – | – | – | 70 | 63 | 73 | 0 | 39 | Ac-ACVYTTWGELIWCDNHEPGPEGGGK-NH2 (not fully specified (bridges); printed as Ac-ACVYTTWGELIWCDNHEPGPEGGGK-NH2; cysteine pairing not given here) [DX1064] | – |
| – | – | – | – | – | 77 | 68 | 74 | 2 | 51 | Ac-CVYTTWGELIWCDNHEPGPEGGGK-NH2 (not fully specified (bridges); printed as Ac-CVYTTWGELIWCDNHEPGPEGGGK-NH2; cysteine pairing not given here) [DX1069] | Binding properties / profile relative to parent peptide (human IgG; batch filterplate, human IgG and subtypes): almost identical to those of DX249 |
| – | – | – | – | – | 73 | 63 | 73 | 0 | 49 | Ac-DHMCVYTTWGELIWCDNHEPGPEGGGK-NH2 (not fully specified (bridges); printed as Ac-DHMCVYTTWGELIWCDNHEPGPEGGGK-NH2; cysteine pairing not given here) [DX1062] | – |
| 88 | 84 | 81 | 0 | 61 | – | – | – | – | – | Ac-ECSRDWSGALVWCAGHEPGPEGGGK-NH2 (not fully specified (bridges); printed as Ac-ECSRDWSGALVWCAGHEPGPEGGGK-NH2; cysteine pairing not given here) [DX1144] | – |
| – | – | – | – | – | 73 | 63 | 71 | 0 | 45 | Ac-EHMCVYTTWGELIWCDNHEPGPEGGGK-NH2 (not fully specified (bridges); printed as Ac-EHMCVYTTWGELIWCDNHEPGPEGGGK-NH2; cysteine pairing not given here) [DX1063] | – |
| 17 | 9 | 21 | 0 | 2 | – | – | – | – | – | Ac-ERACSRDWSGALVWCAGHEPGPEGGGK-NH2 (not fully specified (bridges); printed as Ac-ERACSRDWSGALVWCAGHEPGPEGGGK-NH2; cysteine pairing not given here) [DX1141] | – |
| – | – | – | – | – | – | – | – | – | – | Ac-GDWGECTVTSYGELIWCGGLEPGPEGGGK-NH2 (not fully specified (bridges); printed as Ac-GDWGECTVTSYGELIWCGGLEPGPEGGGK-NH2; cysteine pairing not given here) [DX1070] | hIgG1 elution pH 3.0 (% of Total Load) (human IgG1; Table 13): 22%; hIgG2 elution pH 3.0 (% of Total Load) (human IgG2; Table 13): 42%; % IgG Capture - Batch Binding, Human IgG (human IgG; Table 14, average ligand density 1.8 μM/ml): 91%; hIgG4 elution pH 3.0 (% of Total Load) (IgG4; Table 13): 14% |
| 88 | 83 | 81 | 0 | 55 | – | – | – | – | – | Ac-TCSRDWSGALVWCAGHEPGPEGGGK-NH2 (not fully specified (bridges); printed as Ac-TCSRDWSGALVWCAGHEPGPEGGGK-NH2; cysteine pairing not given here) [DX1143] | – |
| 74 | 63 | 66 | 0 | 42 | – | – | – | – | – | Ac-VCSRDWSGALVWCAGHEPGPEGGGK-NH2 (not fully specified (bridges); printed as Ac-VCSRDWSGALVWCAGHEPGPEGGGK-NH2; cysteine pairing not given here) [DX1145] | – |
| – | – | – | – | – | 33 | 28 | 44 | 0 | 25 | Ac-VCVYTTWGELIWCDNHEPGPEGGGK-NH2 (not fully specified (bridges); printed as Ac-VCVYTTWGELIWCDNHEPGPEGGGK-NH2; cysteine pairing not given here) [DX1067] | – |
| – | – | – | – | – | 33 | 25 | 36 | 0 | 21 | Ac-[Nle]CVYTTWGELIWCDNHEPGPEGGGK-NH2 (not fully specified (bridges); printed as Ac-[Nle]CVYTTWGELIWCDNHEPGPEGGGK-NH2; cysteine pairing not given here) [DX1068] | – |
